Source: patent US20240392262A1, “TRANSPOSASE AND USES THEREOF” (Poseida Therapeutics, Inc., published 2024)

T1: PAH5 Left TAL-PBx (synthetic construct)
T1 chain: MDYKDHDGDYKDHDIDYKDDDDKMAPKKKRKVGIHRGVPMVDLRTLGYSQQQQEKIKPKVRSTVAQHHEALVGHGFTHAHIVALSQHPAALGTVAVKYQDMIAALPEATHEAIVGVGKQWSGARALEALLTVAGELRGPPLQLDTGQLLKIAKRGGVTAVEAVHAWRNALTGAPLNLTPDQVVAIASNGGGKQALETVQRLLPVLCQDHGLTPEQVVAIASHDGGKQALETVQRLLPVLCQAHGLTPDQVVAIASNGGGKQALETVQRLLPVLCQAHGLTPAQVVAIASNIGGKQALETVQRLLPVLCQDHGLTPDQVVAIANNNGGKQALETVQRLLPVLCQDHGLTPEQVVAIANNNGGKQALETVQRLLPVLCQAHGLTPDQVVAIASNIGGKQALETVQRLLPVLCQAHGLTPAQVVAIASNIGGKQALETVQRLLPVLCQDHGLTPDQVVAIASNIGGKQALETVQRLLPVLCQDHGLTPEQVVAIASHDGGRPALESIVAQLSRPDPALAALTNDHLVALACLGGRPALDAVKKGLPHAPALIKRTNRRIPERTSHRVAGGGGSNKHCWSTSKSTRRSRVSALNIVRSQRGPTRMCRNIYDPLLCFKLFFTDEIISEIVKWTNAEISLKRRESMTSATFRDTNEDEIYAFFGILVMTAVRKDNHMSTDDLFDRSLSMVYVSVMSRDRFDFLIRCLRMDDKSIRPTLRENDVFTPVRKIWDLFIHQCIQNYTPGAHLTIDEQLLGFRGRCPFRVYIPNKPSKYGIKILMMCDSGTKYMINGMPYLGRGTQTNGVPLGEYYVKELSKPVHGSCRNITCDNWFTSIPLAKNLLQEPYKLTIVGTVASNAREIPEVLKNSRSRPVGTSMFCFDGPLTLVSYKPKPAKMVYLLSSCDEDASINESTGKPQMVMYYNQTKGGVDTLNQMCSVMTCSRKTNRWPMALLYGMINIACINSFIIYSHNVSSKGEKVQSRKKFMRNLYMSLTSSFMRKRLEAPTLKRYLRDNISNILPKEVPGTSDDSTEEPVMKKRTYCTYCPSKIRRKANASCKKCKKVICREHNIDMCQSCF

T2: PAH5 Right TAL-PBx (synthetic construct)
T2 chain: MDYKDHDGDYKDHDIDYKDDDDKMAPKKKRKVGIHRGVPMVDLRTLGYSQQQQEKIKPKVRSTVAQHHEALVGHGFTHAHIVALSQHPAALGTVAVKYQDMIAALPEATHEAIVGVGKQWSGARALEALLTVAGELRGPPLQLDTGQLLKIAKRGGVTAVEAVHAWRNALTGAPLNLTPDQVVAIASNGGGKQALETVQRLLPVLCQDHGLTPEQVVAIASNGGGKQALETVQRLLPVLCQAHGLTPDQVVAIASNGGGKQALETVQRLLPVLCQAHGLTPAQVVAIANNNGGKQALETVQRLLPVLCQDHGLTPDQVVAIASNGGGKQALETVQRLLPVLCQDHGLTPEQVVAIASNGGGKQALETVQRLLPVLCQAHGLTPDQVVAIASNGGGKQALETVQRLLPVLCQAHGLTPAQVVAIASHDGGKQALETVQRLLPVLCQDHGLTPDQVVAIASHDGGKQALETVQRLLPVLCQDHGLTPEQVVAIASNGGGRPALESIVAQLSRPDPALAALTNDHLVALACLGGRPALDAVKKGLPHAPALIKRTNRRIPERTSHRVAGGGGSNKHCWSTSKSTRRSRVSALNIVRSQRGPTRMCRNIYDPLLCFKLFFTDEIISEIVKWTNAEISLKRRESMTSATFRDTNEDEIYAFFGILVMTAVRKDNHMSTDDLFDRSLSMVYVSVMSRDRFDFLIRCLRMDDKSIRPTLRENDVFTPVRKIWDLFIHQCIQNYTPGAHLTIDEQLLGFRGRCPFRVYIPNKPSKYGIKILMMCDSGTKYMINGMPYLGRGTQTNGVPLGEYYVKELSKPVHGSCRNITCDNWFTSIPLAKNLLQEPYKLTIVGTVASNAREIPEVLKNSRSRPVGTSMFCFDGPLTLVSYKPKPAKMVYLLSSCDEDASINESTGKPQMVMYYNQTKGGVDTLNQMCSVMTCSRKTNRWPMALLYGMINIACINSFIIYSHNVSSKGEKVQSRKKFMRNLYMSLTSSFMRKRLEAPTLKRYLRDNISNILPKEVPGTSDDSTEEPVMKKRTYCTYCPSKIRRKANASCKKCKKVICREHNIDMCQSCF

T3: PAH4 Left TAL-PBx (synthetic construct)
T3 chain: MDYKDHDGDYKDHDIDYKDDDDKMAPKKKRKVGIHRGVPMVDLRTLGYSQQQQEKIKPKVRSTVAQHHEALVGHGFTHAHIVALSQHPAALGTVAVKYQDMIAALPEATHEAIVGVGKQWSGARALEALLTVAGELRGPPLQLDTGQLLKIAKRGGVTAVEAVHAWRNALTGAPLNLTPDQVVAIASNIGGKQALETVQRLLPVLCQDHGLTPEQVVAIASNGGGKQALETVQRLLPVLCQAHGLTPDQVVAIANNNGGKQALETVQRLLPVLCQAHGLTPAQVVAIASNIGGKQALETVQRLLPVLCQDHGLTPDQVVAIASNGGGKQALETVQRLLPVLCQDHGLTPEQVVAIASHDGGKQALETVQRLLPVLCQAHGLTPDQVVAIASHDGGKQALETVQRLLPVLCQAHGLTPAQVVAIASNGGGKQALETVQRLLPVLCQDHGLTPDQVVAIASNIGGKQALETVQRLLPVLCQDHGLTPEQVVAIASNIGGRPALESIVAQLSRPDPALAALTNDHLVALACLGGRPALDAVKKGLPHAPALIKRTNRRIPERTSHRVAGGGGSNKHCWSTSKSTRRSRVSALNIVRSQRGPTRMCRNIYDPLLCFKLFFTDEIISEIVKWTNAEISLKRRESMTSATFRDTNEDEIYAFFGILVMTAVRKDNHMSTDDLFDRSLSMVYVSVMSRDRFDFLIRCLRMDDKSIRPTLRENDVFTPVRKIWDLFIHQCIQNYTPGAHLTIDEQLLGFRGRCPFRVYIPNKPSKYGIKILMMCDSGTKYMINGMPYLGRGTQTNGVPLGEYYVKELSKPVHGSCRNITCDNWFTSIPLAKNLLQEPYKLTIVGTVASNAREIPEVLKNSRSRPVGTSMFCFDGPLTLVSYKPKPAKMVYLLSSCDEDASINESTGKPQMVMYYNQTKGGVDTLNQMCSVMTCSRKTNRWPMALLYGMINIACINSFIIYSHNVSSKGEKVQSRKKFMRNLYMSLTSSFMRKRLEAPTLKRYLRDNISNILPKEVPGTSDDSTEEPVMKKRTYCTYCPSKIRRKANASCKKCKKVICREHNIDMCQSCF

T4: PAH4 Right TAL-PBx (synthetic construct)
T4 chain: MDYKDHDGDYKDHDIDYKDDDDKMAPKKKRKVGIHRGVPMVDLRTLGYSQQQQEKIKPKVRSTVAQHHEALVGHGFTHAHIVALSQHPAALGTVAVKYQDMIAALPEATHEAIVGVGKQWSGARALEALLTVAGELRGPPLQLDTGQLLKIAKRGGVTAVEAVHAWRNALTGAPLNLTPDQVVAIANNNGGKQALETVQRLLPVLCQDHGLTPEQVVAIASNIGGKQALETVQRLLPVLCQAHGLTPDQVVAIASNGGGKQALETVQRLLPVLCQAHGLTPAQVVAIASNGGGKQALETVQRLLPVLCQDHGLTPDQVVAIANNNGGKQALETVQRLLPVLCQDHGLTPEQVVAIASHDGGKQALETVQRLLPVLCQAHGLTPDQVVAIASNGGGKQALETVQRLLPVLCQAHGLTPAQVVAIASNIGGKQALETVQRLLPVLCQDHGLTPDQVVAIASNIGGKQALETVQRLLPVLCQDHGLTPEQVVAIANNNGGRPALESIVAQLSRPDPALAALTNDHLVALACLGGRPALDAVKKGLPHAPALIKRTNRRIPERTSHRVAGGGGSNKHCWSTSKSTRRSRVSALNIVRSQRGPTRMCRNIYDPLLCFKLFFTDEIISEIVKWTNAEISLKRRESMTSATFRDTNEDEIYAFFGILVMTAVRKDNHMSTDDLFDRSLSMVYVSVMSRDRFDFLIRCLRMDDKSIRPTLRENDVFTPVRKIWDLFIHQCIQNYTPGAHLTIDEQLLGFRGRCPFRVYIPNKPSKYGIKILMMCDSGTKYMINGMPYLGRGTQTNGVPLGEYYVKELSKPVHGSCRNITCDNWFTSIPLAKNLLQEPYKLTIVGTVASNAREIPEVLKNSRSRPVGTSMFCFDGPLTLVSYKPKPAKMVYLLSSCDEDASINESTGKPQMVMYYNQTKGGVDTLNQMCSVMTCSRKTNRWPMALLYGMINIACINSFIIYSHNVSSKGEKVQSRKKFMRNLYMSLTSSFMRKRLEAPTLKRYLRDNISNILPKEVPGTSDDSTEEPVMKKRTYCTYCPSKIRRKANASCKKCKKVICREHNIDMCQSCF


Columns and labels:
Details in all cases: tags: 3xFlag, SV40 NLS
PAH5 Left TAL-PBx = biological target: T1, PAH5 Left TAL-PBx; assay: cell_activity; left only
PAH5 Right TAL-PBx = biological target: T2, PAH5 Right TAL-PBx; assay: cell_activity; right only
PAH4 Left TAL-PBx = biological target: T3, PAH4 Left TAL-PBx; assay: cell_activity; left only
PAH4 Right TAL-PBx = biological target: T4, PAH4 Right TAL-PBx; assay: cell_activity; right only

Row | Binder | activity (PAH5 Left TAL-PBx) | activity (PAH5 Right TAL-PBx) | activity (PAH4 Left TAL-PBx) | activity (PAH4 Right TAL-PBx)
1 | PAH5 target (dsDNA) DNA 1: TTCTAGGAAACTTGAACTATGATTTTAAAAAAAGAGAAAGAAGGAAACAAAA DNA 2: TTTTGTTTCCTTCTTTCTCTTTTTTTAAAATCATAGTTCAAGTTTCCTAGAA | 3.6 % GFP+ | 3.9 % GFP+ |  | 
2 | PAH4 target (dsDNA) DNA 1: TATGATCCTAATCAGGCTTGTAAATTAACTTTTGAGGCTCTCTTAGCAATCA DNA 2: TGATTGCTAAGAGAGCCTCAAAAGTTAATTTACAAGCCTGATTAGGATCATA |  |  | 3.6 % GFP+ | 2.9 % GFP+
